Consider four variants from IntAct's records for PubMed 29892012.

To fix the notation:
B1: Ribosome-recycling factor, mitochondrial (Homo sapiens), Q96E11 (parent)
chain: MALGLKCFRMVHPTFRNYLAASIRPVSEVTLKTVHERQHGHRQYMAYSAVPVRHFATKKAKAKGKGQSQTRVNINAALVEDIINLEEVNEEMKSVIEALKDNFNKTLNIRTSPGSLDKIAVVTADGKLALNQISQISMKSPQLILVNMASFPECTAAAIKAIRESGMNLNPEVEGTLIRVPIPQVTREHREMLVKLAKQNTNKAKDSLRKVRTNSMNKLKKSKDTVSEDTIRLIEKQISQMADDTVAELDRHLAVKTKELLG
partner: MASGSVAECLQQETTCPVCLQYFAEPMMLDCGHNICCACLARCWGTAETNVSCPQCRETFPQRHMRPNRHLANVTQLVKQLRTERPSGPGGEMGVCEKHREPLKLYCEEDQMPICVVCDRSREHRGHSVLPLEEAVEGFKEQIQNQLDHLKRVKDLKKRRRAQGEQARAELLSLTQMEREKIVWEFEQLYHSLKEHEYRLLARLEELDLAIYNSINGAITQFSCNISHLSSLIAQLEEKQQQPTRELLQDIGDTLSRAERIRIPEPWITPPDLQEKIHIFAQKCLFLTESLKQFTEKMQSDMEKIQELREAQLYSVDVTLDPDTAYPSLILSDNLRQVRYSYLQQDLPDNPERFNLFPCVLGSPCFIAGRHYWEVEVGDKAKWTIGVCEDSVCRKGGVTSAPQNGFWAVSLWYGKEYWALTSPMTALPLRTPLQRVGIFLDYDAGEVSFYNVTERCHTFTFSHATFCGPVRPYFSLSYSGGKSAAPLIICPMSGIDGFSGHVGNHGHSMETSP
B2: Transcription factor RFX3 (Homo sapiens), P48380 (parent)
chain: MQTSETGSDTGSTVTLQTSVASQAAVPTQVVQQVPVQQQVQQVQTVQQVQHVYPAQVQYVEGSDTVYTNGAIRTTTYPYTETQMYSQNTGGNYFDTQGSSAQVTTVVSSHSMVGTGGIQMGVTGGQLISSSGGTYLIGNSMENSGHSVTHTTRASPATIEMAIETLQKSDGLSTHRSSLLNSHLQWLLDNYETAEGVSLPRSTLYNHYLRHCQEHKLDPVNAASFGKLIRSIFMGLRTRRLGTRGNSKYHYYGIRVKPDSPLNRLQEDMQYMAMRQQPMQQKQRYKPMQKVDGVADGFTGSGQQTGTSVEQTVIAQSQHHQQFLDASRALPEFGEVEISSLPDGTTFEDIKSLQSLYREHCEAILDVVVNLQFSLIEKLWQTFWRYSPSTPTDGTTITESSNLSEIESRLPKAKLITLCKHESILKWMCNCDHGMYQALVEILIPDVLRPIPSALTQAIRNFAKSLEGWLSNAMNNIPQRMIQTKVAAVSAFAQTLRRYTSLNHLAQAARAVLQNTSQINQMLSDLNRVDFANVQEQASWVCQCDDNMVQRLETDFKMTLQQQSTLEQWAAWLDNVMMQALKPYEGRPSFPKAARQFLLKWSFYSSMVIRDLTLRSAASFGSFHLIRLLYDEYMFYLVEHRVAQATGETPIAVMGEFGDLNAVSPGNLDKDEGSEVESEMDEELDDSSEPQAKREKTELSQAFPVGCMQPVLETGVQPSLLNPIHSEHIVTSTQTIRQCSATGNTYTAV
partner: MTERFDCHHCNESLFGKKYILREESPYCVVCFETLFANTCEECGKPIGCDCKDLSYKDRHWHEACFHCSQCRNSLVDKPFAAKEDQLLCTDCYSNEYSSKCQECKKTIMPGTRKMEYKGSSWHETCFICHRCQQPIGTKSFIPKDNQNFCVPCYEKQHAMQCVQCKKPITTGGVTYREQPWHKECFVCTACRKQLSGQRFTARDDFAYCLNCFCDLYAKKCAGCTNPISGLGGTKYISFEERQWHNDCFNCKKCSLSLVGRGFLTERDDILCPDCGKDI
B3: Myotubularin-related protein 9 (Homo sapiens), Q96QG7 (parent)
chain: MEFAELIKTPRVDNVVLHRPFYPAVEGTLCLTGHHLILSSRQDNTEELWLLHSNIDAIDKRFVGSLGTIIIKCKDFRIIQLDIPGMEECLNIASSIEALSTLDSITLMYPFFYRPMFEVIEDGWHSFLPEQEFELYSSATSEWRLSYVNKEFAVCPSYPPIVTVPKSIDDEALRKVATFRHGGRFPVLSYYHKKNGMVIMRSGQPLTGTNGRRCKEDEKLINATLRAGKRGYIIDTRSLNVAQQTRAKGGGFEQEAHYPQWRRIHKSIERYHILQESLIKLVEACNDQTHNMDRWLSKLEASNWLTHIKEILTTACLAAQCIDREGASILIHGTEGTDSTLQVTSLAQIILEPRSRTIRGFEALIEREWLQAGHPFQQRCAQSAYCNTKQKWEAPVFLLFLDCVWQILRQFPCSFEFNENFLIMLFEHAYASQFGTFLGNNESERCKLKLQQKTMSLWSWVNQPSELSKFTNPLFEANNLVIWPSVAPQSLPLWEGIFLRWNRSSKYLDEAYEEMVNIIEYNKELQAKVNILRRQLAELETEDGMQESP
partner: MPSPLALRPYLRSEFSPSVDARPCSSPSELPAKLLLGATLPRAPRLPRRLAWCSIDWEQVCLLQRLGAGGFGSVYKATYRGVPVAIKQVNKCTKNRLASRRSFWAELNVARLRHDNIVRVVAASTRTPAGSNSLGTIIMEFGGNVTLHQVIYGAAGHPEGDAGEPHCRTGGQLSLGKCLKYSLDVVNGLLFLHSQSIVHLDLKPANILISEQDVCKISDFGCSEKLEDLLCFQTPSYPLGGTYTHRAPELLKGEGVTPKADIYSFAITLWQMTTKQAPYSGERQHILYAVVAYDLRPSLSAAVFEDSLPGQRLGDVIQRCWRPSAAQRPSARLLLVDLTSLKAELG

Variants of B1 are the subject of one test. Particulars: with tri27_human TRIM27, P14373.
MALGLKCFRMVHPTFRNYLAASIRPVSEVTLKTVHERQHGHRQYMAYSAVPVRHFATKKAKAKGKGQSQTRVNINAALVEDIINLEEVNEEMKSVIEALKDNFNKTLNIRTSPGSLDKIAVVTADGKLALNQISQISMKSPQLILVNMASFPECTAAAIKAIRESGMNLNPEVEETLIRVPIPQVTREHREMLVKLAKQNTNKAKDSLRKVRTNSMNKLKKSKDTVSEDTIRLIEKQISQMADDTVAELDRHLAVKTKELLG [G175E]: the “effect of a mutation on the interaction” value is “disrupting interaction strength”.

The variants in a further test derive from B2. Particulars: with fhl2_human FHL2, Q14192.
Take Y135D: the “effect of a mutation on the interaction” value is “with no effect”.

The next test covers variants of B2. To be noted: with fhl2_human FHL2, Q14192. This is another data set of the same source.
On to S387C, for which the “effect of a mutation on the interaction” value was “with no effect”.

The next test covers variants of B3. To be noted: with mos_human MOS.
For MEFAELIKTPRVDNVVLHRPFYPAVEGTLCLTGHHLILSSRQDNTEELWLLHSNIDAIDKRFVGSLGTIIIKCKDFRIIQLDIPGMEECLNIASSIEALSTLDSITLMYPFFYRPMFEVIEDGWHSFLPEQEFELYSSATSEWRLSYVNKEFAVCPSYPPIVTVPKSIDDEALRKVATFRHGGRFPVLSYYHKKNGMVIMRSGQPLTGTNGRRCKEDEKLINATLRAGKRGYIIDTRSLNVAQQTRAKGGGFEQEAHYPQWRRIHKSIERYHILQESLIKLVEACNDQTHNMDRWLSKLEASNWLTHIKEILTTACLAAQCIDREGASILIHGTEGTDSTLQVTSLAQIILEPRSRTISGFEALIEREWLQAGHPFQQRCAQSAYCNTKQKWEAPVFLLFLDCVWQILRQFPCSFEFNENFLIMLFEHAYASQFGTFLGNNESERCKLKLQQKTMSLWSWVNQPSELSKFTNPLFEANNLVIWPSVAPQSLPLWEGIFLRWNRSSKYLDEAYEEMVNIIEYNKELQAKVNILRRQLAELETEDGMQESP [R359S], the “effect of a mutation on the interaction” value was “with no effect”.
